From patent publication US20190248902A1 (published 2019) come the findings set out here.

Test [1] has as its target T1, human ASGR-1 mutant construct H203 (human, UniProt P07306 1-291).
T1 construct: Arg/Glu scanning: non-arginine residues were changed to arginine; Transiently expressed on CHO-S cells
T1 sequence: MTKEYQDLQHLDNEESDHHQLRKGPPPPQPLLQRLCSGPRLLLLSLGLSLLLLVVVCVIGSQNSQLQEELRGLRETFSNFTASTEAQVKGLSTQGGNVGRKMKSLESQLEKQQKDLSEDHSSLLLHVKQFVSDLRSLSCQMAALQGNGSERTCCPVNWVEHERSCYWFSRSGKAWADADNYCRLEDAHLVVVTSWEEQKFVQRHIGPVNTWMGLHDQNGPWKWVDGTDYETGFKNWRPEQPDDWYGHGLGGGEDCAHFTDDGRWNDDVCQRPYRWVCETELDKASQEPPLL
Description: FACS, transfected CHO-S cells, mAb 5 ug/ml. The method, boiled down:
(§1)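 Transiently transfected CHO-S cells expressing wild-type or mutant hASGR-1 incubated with antibody at 5 ug/ml, 1 h at 4 °C; bound antibody detected by Alexa Fluor 647 anti-Fc plus 7-AAD, by flow cytometry. Binding normalized to expression using an unaffected antibody (65C12), then to wild type; hits defined as >3× IQR above third quartile.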
A general note: A flow cytometer gives signals particle by particle.

For test [2], the target named is T2, human ASGR-1 (wild type) (human, UniProt P07306 1-291).
T2 construct: also called wt ASGR1; huASGR-1
T2 sequence: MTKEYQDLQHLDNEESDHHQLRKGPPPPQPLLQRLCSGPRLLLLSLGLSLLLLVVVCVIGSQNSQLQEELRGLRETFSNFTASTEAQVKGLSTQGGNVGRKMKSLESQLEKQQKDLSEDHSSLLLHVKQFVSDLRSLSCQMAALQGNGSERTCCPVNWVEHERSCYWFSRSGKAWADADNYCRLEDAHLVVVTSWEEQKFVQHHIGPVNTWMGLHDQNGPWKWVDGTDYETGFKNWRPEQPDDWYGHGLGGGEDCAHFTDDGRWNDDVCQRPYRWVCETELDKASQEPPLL
Description: FACS, transfected CHO-S cells, mAb 5 ug/ml. The method, boiled down:
as §1

For test [3], the target named is T1, human ASGR-1 mutant construct H203. Description: FACS ratio: H203 normalized value / wt normalized value. The method, boiled down: as §1

B1: 7E11 (antibody, V domains shown)
VH: QVQLVESGGGVVQPGRSLRLSCAASGFTFSSFGMHWVRQAPGKGLEWVAIIWHDGSNKYYADSVKGRFTISRDNSNNTLYLQMSSLRAEDTAVYYCARDLSMGGMDVWGQGTTVTVSS
VL: DIQMTQSPSSLSASVGDRVTIACRASQNIISYLNWYQQKPGKAPKFLIYTASSLQSGVPSRFSGSGSGTDFTLTISSLQPEDFAIYYCQQTYSTPLTFGGGTKVEIK
notes: mAb
For the molecule B1, the “FACS Binding Geomean” value in test [1] turned out to be 14700; in test [2], 45500. Besides, the “Normalization to wt ASGR1 Binding” value in test [3] came to 1.42.

B2: 56E5 (antibody, V domains shown)
VH: QVQLVQSGAEVKKPGASVKVSCQASGYTFTGYHMHWVRQAPGQGLEWMGWINPNNNATNYAQKFQGRVTMTRDTSISTAYMELRRLRSDDTAVYHCARDGTSSFDYWGQGTLVTVSS
VL: DIQMTQSPSSVSASVGDRVTITCRASQGIRKWLAWYQQKPGKAPKLLIYAASSLQSGVPSRFSGSGSGTDFTLTISSLQPEDFATYYCQQANSFPFTFGPGTKVDIK
notes: mAb
B2: the “FACS Binding Geomean” value came out at 20300 in test [1] and 42600 in test [2]. The “Normalization to wt ASGR1 Binding” value in test [3] is 0.962.

B3: 4A2 (antibody, V domains shown)
VH: QVQLVQSGTEVKKPGASVKVSCKASGYTFTNYDINWVRQATGQGLEWMGWMHPNSGNTGYAQKFQGRVTLTRNTSISTAYMELSSLRSEDTAVYYCASSSGWYYFDYWGQGTLVTVSS
VL: DIVMTQSPDSLAVSLGERATINCKSSQSILHSSNNNNYLAWFQQKPGQPPKLLLYWASTRESGVPDRFSGSGSGTDFTLTISSLQPEDVAVYYCQQYYNTPVTFGPGTKVGIK
notes: mAb
As for B3, the “FACS Binding Geomean” value in test [1] is 18900; in test [2], 41100. In test [3], the “Normalization to wt ASGR1 Binding” value was 0.997.

B4: 26C4 (antibody, V domains shown)
VH: QVQLVQSGAEVKKPGASVKVSCKASGYTFTNYDINWVRQASGQGLEWMGWMNPNSGNTGYAQRFQGRVTMTRNTSINTAYMELSSLRSEDTAVYYCASSSGWYYFDYWGQGTLVTVSS
VL: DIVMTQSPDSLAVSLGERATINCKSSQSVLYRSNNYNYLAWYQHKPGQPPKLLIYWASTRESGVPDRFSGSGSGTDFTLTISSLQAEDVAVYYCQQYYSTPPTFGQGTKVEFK
notes: mAb
Take B4: the “FACS Binding Geomean” value in test [1] was 13500; in test [2], 46000. Further, in test [3], the “Normalization to wt ASGR1 Binding” value was 1.57.

B5: 29H8 (antibody, V domains shown)
VH: QVQLVQSGAEVQKPGASVKVSCKASGYTFTNYDINWVRQATGQGLEWMGWMNPNSGNTGYAQRFQGRVTMTRNTSISAAYMELSSLRSEDTAVYYCASSSGWYYFDYWGQGTLVTVSS
VL: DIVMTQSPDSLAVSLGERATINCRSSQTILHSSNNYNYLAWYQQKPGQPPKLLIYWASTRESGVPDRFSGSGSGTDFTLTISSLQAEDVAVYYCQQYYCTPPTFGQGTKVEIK
notes: mAb
For B5, the “FACS Binding Geomean” value in test [1] worked out at 13200; in test [2], 40900. Besides, the “Normalization to wt ASGR1 Binding” value in test [3] worked out at 1.42.

B6: 5E5 (antibody, V domains shown)
VH: QVQLVESGGGVVQPGRSLRLSCAASGFTFSNYVMHWVRQAPGKGLEWVAVIWYDGSNKYYADSVKGRFTISRDNSKNTLYLQMNSLRAEDTAVYYCTREVYSSGWYDYGMDVWGQGTTVTVSS
VL: DIQMTQSPSSLSASVGDRVTITCRASQGIRNDLGWYQQKPGKAPKRLIYAASSLQSGVPSRFSGSGSGTEFTLTISSLQPEDFATYYCLQHYSYPRTFGQGTKVEVK
notes: mAb
B6: the figures for the “FACS Binding Geomean” value in test [1] and in test [2] were 12600 and 40700, respectively. The “Normalization to wt ASGR1 Binding” value in test [3] is 1.48.

B7: 7G4 (antibody, V domains shown)
VH: QVQLVESGGGVVQPGRSLRLSCAASGFTFNNYVMHWVRQAPGKGLEWVAVIWYDGSNKYYADSVKGRFTISRDNSKNTLYLQMTSLRAEDTAVYYCAREKYSSNWYDYGMDVWGQGTTVTVSS
VL: DIQMTQSPSSLSASVGDRVTITCRASQGIRNDLGWYQQRPGKAPKRLIYAASSLQSGVPSRFSGSGSGTEFTLTISSLQPEDSATYYCLHQYSYPRTFGQGTKVEIK
notes: mAb
Turning to B7, the “FACS Binding Geomean” value in test [1] amounted to 18500; in test [2] it was 48500. Moreover, the “Normalization to wt ASGR1 Binding” value in test [3] was found to be 1.2.
